Common to all, as to settings: both partners purified
For assay [1], the target named is T1, biotinylated GST-MmIMPβ1 (Mus musculus importin β1) (Mus musculus, UniProt P70168 1-876, biotin (Sulfo-NHS-Biotin reagent)).
T1 construct: Mus musculus importin β1 (MmIMPβ1); also called M. musculus IMPβ1; mammalian IMPβ1; source: recombinantly expressed, purified as GST fusion protein
The experiment in a line: AlphaScreen or HTRF; His-tagged IMPαs (30 nM) titrated with increasing concentrations of biotinylated GST-MmIMPβ1 (legend: 5 nM). (In general: Alpha assays give light when donor and acceptor beads are brought close together.)

Assay [2] concerns the target T2, Plasmodium falciparum importin α, biotinylated GST fusion protein (Plasmodium falciparum, UniProt Q8IAW0 1-545, biotin (Sulfo-NHS-Biotin reagent)).
T2 construct: importin α (IMPα) of Plasmodium falciparum; also called PfIMPα; IMPα from P. falciparum; source: recombinantly expressed, purified as GST fusion protein
T2 sequence (looked up): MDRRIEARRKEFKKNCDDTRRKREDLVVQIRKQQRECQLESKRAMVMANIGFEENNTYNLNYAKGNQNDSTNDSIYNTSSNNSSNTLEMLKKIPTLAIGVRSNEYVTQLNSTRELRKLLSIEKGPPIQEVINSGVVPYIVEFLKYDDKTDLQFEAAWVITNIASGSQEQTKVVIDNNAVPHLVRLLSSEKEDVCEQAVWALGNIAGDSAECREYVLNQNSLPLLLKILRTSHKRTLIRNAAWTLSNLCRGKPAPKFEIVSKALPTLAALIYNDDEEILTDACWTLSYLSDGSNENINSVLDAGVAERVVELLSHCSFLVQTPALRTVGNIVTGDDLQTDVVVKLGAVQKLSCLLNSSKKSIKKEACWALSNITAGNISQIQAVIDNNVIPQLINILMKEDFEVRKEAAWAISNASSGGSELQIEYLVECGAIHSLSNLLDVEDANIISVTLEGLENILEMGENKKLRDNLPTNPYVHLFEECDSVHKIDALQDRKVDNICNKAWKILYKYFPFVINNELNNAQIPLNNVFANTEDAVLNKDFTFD
The experiment in a line: AlphaScreen or HTRF; biotinylated IMPαs titrated against His-tagged NLS-GFPs (30 nM); apparent dissociation constant.

For assay [3], the target named is T3, Toxoplasma gondii importin α, biotinylated GST fusion protein (Toxoplasma gondii, biotin (Sulfo-NHS-Biotin reagent)).
T3 construct: importin α (IMPα) of Toxoplasma gondii; also called TgIMPα; T. gondii IMPα; source: recombinantly expressed, purified as GST fusion protein
The assay is described as above.

For assay [4], the target named is mammalian IMPα/β1 heterodimer from M. musculus (Mus musculus, UniProt P52293 1-529; P70168 1-876, biotin (Sulfo-NHS-Biotin reagent)). The description is as above.

B1: His-tagged Plasmodium falciparum importin α (natural protein, UniProt Q8IAW0 1-545, looked up)
chain: MDRRIEARRKEFKKNCDDTRRKREDLVVQIRKQQRECQLESKRAMVMANIGFEENNTYNLNYAKGNQNDSTNDSIYNTSSNNSSNTLEMLKKIPTLAIGVRSNEYVTQLNSTRELRKLLSIEKGPPIQEVINSGVVPYIVEFLKYDDKTDLQFEAAWVITNIASGSQEQTKVVIDNNAVPHLVRLLSSEKEDVCEQAVWALGNIAGDSAECREYVLNQNSLPLLLKILRTSHKRTLIRNAAWTLSNLCRGKPAPKFEIVSKALPTLAALIYNDDEEILTDACWTLSYLSDGSNENINSVLDAGVAERVVELLSHCSFLVQTPALRTVGNIVTGDDLQTDVVVKLGAVQKLSCLLNSSKKSIKKEACWALSNITAGNISQIQAVIDNNVIPQLINILMKEDFEVRKEAAWAISNASSGGSELQIEYLVECGAIHSLSNLLDVEDANIISVTLEGLENILEMGENKKLRDNLPTNPYVHLFEECDSVHKIDALQDRKVDNICNKAWKILYKYFPFVINNELNNAQIPLNNVFANTEDAVLNKDFTFD
notes: importin α (IMPα) of Plasmodium falciparum; also called PfIMPα; His-tagged PfIMPα
As for B1, the Kd in assay [1] was 1.3 nM.

B2: His-tagged T-ag-NLS-GFP (NLS of simian virus SV40 large tumour antigen fused to GFP) (domain or fragment)
chain: PPKKKRKV
For B2, the Kd in assay [2] is 2.9 nM; in assay [3], 3.9 nM; in assay [4], 2.8 nM.

(Values after PMC9695642, “Conservation of Importin α Function in Apicomplexans: Ivermectin and GW5074 Target Plasmodium falciparum Importin α and Inhibit Parasite Growth in Culture” (International Journal of Molecular Sciences, 2022).)
